According to article doi:10.1101/2024.08.05.606604, “The molecular basis of Human FN3K mediated phosphorylation of glycated substrate” (bioRxiv, 2024):

Molecular target: the molecule itself
Assay: crystal structure; HsFN3KΔ crystals, hanging drop vapor diffusion at 20 °C (0.5 M ammonium sulfate, 0.1 M tri-sodium citrate, 1 M lithium sulfate); space group P212121, two molecules in the asymmetric unit; apo and soaked with nucleotides and DMF

B1: HsFN3KΔ (human fructosamine-3-kinase with an internal loop truncation: amino acid 117–138 replaced with a GSS linker) (enzyme)
chain: MEQLLRAELRTATLRAFGGPGAGCISEGRAYDTDAGPVFVKVNRRTQARQMFEGEVASLEALRSTGLVRVPRPMKVIDLPGGGAAFVMEHLKMKSLSSQASKLGEQMADLHLYNQKGSSYVDKFGFHTVTCCGFIPQVNEWQDDWPTFFARHRLQAQLDLIEKDYADREARELWSRLQVKIPDLFCGLEIVPALLHGDLWSGNVAEDDVGPIIYDPASFYGHSEFELAIALMFGGFPRSFFTAYHRKIPKAPGFDQRLLLYQLFNYLNHWNHFGREYRSPSLGTMRRLLK
notes: human fructosamine-3-kinase (FN3K), Gene ID 64122, residues before the truncated loop (up to residue 116); linker that replaces amino acids 117–138; human fructosamine-3-kinase (FN3K), Gene ID 64122, residues after the truncated loop (from residue 139); Construct used for all crystal structures; also called apo-HsFN3K; apo-HsFN3KΔ; source: E. coli Rosetta 2 (DE3), purified (Ni-NTA, SP-HP cation …)
- stoichiometry N: 2
